The values below come from patent US20240294623A1.

Some results are limits rather than exact numbers.

The test concerns the target antigen of FIG. 44 (not named). Put plainly: SPR (Biacore), Fab, FIG. 44. A general note: Surface plasmon resonance follows binding to a sensor surface in real time, without labels.

B1: Ab46 Fab (Fab, V domains shown)
VH: EVQLLESGGGLVQPGGSLRLSCAASGFTFADYAMTWVRQAPGKGLEWVSAISGSGAATYFADSVKGRFTISRDNSKNTLYLQMNSLRAEDTAVYYCARVSSGHWDYDYWGQGTLVTVSS
VL: DIQLTQSPSSLSASVGDRVTITCRASQSISSYLNWYQQKPGKAPKLLIYAASGLESGVPSRFSGSGSGTDFTLTISSLQPEDFATYYCQQTYGVPLTFGGGTKVEIK
Turning to B1, the fold longer bound than the reference antibody was more than 50 fold and the t1/2 is more than 2.17 h.
